Data as given in the Human Domainome abundance scans (Beltran et al. 2025).

B1: E3 ubiquitin-protein ligase Midline-1, residues 172 to 214; numbered along this chain, O15344 (parent)
chain: GLMCLEHEDEKVNMYCVTDDQLICALCKLVGRHRDHQVAALSE

Variants of: B1
Assay: abundance fitness (aPCA) (normalised: wild type 0, dead -1); higher = more abundant; growth selection in yeast, the domain comes from the species named
Conditions: Homo sapiens

Abundance fitness of substitutions, site by site:
G1: R -0.081, Y -0.192, E 0.134, V -0.211, T -0.235, S -0.184, P -0.112, W -0.611, D 0.306, A -0.361, K 0.061
M14: W -0.055, Q 0.242, K 0.121, V -0.386, P -0.405, A 0.043, L -0.022, E 0.176, T 0.301, N -0.028, S 0.267, F -0.451, H -0.112, G 0.059, R 0.033, C 0.137, D 0.09
L5: N -0.124, C 0.055, S -0.012, Q -0.155, H -0.037, D 0.039, F -0.13, K 0.142, W -0.482, E 0.074, T -0.039, I -0.435, V -0.165, G -0.092, A 0.023, R -0.062, Y -0.021, P 0.058
C4: H -0.221, T -0.078, E -0.441, Q -0.314, W -0.439, P -1.18, G -0.713, D -0.343, V -0.944, A -0.699, R -0.647, Y -0.594, S -0.295
D9: V -0.086, A -0.418, M 0.246, P -0.088, G 0.031, T -0.24, Q 0.116, K -0.38, W -0.052, C 0.13, H -0.107, Y -0.113, R 0.027, F 0.173, I 0.042, E -0.378, S 0.02, N 0.636, L 0.084
K11: W -0.288, C 0.148, A -0.107, D -0.258, V -0.259, F -0.132, H 0.19, P -0.259, S -0.07, E 0.033, R -0.012, Q 0.158, N 0.027, I 0.284, G -0.186, M 0.096
L22: H 0.482, E 0.377, G 0.364
V12: L -0.233, P -0.51, Q 0.328, Y -0.02, T -0.149, G 0.026, K 0.319, I 0.093, F 0.301, C -0.231, R 0.024, E -0.122, W -0.251, A -0.208, M -0.042
H7: S -0.765, Y -0.637, R -0.646, C -0.466, Q -0.551, W -0.89, L -1.03, G -0.5, E -0.433, T -0.492, K -0.604, V -1.34, A -0.703, M -0.66
E6: L -0.14, A -0.085, K -0.206, P -0.843, N -0.226, V -0.183, G -0.438, Q -0.036, I 0.126, S 0.039, D -0.132, T 0.001, R -0.297, H 0.063, W -0.374, Y -0.276, C -0.447, F 0.023
L2: I 0.257, D 0.674, M 0.544, V 0.233, Y 0.109, S 0.279, Q 0.063, E 0.611, C 0.19, H 0.147, F -0.298, K 0.795, A 0.483, T 0.51
V17: G 0.092, Q 0.275, D 0.113, N 0.545, L -0.094, E 0.135, C 0.173, S 0.174, T -0.027, I 0.235, Y -0.071, R 0.176, A 0.172, K 0.444, H 0.29, W -0.176
D20: A -0.15, C -0.308, Y -0.464, L -0.404, T -0.232, P -0.573, G -0.075, Q 0.099, R -0.083, H -0.106, W -0.753, V -0.33, S -0.038, M -0.067, I -0.543, N 0.033
Q21: L -0.154, E -0.047, V 0.044, D -0.099, A 0.003, C -0.174, W -0.682, I -0.133, P -0.524, G -0.133, S 0.042, R 0.031, M 0.052, H 0.231, T -0.064, Y -0.171, F -0.07
T18: P -0.492, D -0.152, Q -0.073, L -0.32, C -0.256, M -0.394, W -0.532, Y -0.482, N -0.048, R -0.101, K -0.019, V -0.077
C16: V -0.725, R -0.469, Y -0.624, I -0.127, E -0.185, A -0.569, P -0.289, H -0.215, S -0.14, K -0.298, G -0.291, W -1.19, T -0.351, M -0.674, N -0.183, Q -0.219
M3: P -0.309, R -0.101, Y -0.229, H 0.14, C -0.21, N 0.019, V -0.144, W -0.333, E -0.332, T -0.166, D 0.018, K -0.006, L -0.05, F 0.111, S 0.006, A -0.022, Q -0.276, I 0.089
N13: E -0.084, P -0.567, T -0.043, V -0.396, F 0.354, D -0.071, Q 0.005, S -0.345, Y -0.108, L -0.254, R -0.137, K 0.04, A -0.146, C -0.13, G -0.022
Y15: H 0.151, R 0.258, Q 0.315, W -0.089, G -0.015, S -0.023, C 0.059, M -0.094, A 0.045, T -0.288, N -0.165, V -0.014, K 0.28, L 0.014, E 0.001
E10: D -0.164, Q -0.181, W -0.247, P -0.498, M -0.029, L -0.214, N 0.093, H 0.066, T -0.204, F -0.136, G -0.316, A -0.133, K 0.063, S -0.079, R -0.046, V -0.414, C -0.062
D19: V -1.02, M -1.1, K -0.759, E -0.012, A -0.928, Q -0.557, F -0.218, H -0.496, W -0.779, G -0.72, N -0.095, L -1.04, S -0.377, C -0.175, R -0.65, T -0.984, P -0.723
E8: T 0.398, S 0.375, A 0.179, Q 0.051, W -0.348, P 0.186, C 0.16, Y -0.243, V 0.072, D -0.165, H 0.056, R 0.116, K 0.221, F -0.144, N -0.137, L 0.108, I -0.139
